The chains are these.
B1: mUCHT1 mIgG2a, homodimeric antibody without FAST-Ig mutations (antibody, V domains shown)
VH: EVQLQQSGPELVKPGASMKISCKASGYSFTGYTMNWVKQSHGKNLEWMGLINPYKGVSTYNQKFKDKATLTVDKSSSTAYMELLSLTSEDSAVYYCARSGYYGDSDWYFDVWGQGTTLTVFS
VL: DIQMTQTTSSLSASLGDRVTISCRASQDIRNYLNWYQQKPDGTVKLLIYYTSRLHSGVPSKFSGSGSGTDYSLTISNLEQEDIATYFCQQGNTLPWTFAGGTKLEIK
notes: VH of the original mouse antibody mUCHT1; mouse IgG2a (mIgG2a) heavy chain constant region; numbers count on: Eu numbering; VL of the original mouse antibody mUCHT1; mouse kappa light chain constant region (CL); Whole IgG of one HC and one LC; also called anti-CD3; H2L2H2L2; source: Expi293F, transiently expressed, purified (Ab-Capcher MAG2, MonoSpin ProA or MonoSpin ProG); copies: 2 + 2
B2: mUCHT1 mIgG1, homodimeric antibody without FAST-Ig mutations (antibody, V domains shown)
VH: EVQLQQSGPELVKPGASMKISCKASGYSFTGYTMNWVKQSHGKNLEWMGLINPYKGVSTYNQKFKDKATLTVDKSSSTAYMELLSLTSEDSAVYYCARSGYYGDSDWYFDVWGQGTTLTVFS
VL: DIQMTQTTSSLSASLGDRVTISCRASQDIRNYLNWYQQKPDGTVKLLIYYTSRLHSGVPSKFSGSGSGTDYSLTISNLEQEDIATYFCQQGNTLPWTFAGGTKLEIK
notes: VH of the original mouse antibody mUCHT1; mouse IgG1 (mIgG1) heavy chain constant region; numbers count on: Eu numbering; VL of the original mouse antibody mUCHT1; mouse kappa light chain constant region (CL); Whole IgG of one HC and one LC; also called anti-CD3; H2L2H2L2; source: Expi293F, transiently expressed, purified (Ab-Capcher MAG2 or MonoSpin ProG); copies: 2 + 2
B3: mUCHT1 mIgG2a V1+C19, homodimeric antibody with FAST-Ig V1+C19 mutations (antibody, V domains shown)
VH: EVQLQQSGPELVKPGASMKISCKASGYSFTGYTMNWVKESHGKNLEWMGLINPYKGVSTYNQKFKDKATLTVDKSSSTAYMELLSLTSEDSAVYYCARSGYYGDSDWYFDVWGQGTTLTVFS
VL: DIQMTQTTSSLSASLGDRVTISCRASQDIRNYLNWYQKKPDGTVKLLIYYTSRLHSGVPSKFSGSGSGTDYSLTISNLEQEDIATYFCQQGNTLPWTFAGGTKLEIK
notes: VH of mUCHT1; mouse IgG2a (mIgG2a) heavy chain constant region; numbers count on: Eu numbering; VL of mUCHT1; mouse kappa light chain constant region (CL); numbers count on: Kabat numbering; Whole IgG of one HC and one LC; also called anti-CD3; H2L2H2L2; source: Expi293F, transiently expressed, purified (Ab-Capcher MAG2, MonoSpin ProA or MonoSpin ProG); copies: 2 + 2
B4: mSP34 mIgG2a V1+C19, homodimeric antibody with FAST-Ig V1+C19 mutations (antibody, V domains shown)
VH: EVQLVESGGGLVQPKGSLKLSCAASGFTFNTYAMNWVREAPGKGLEWVARIRSKYNNYATYYADSVKDRFTISRDDSQSILYLQMNNLKTEDTAMYYCVRHGNFGNSYVSWFAYWGQGTLVTVSA
VL: QAVVTQESALTTSPGETVTLTCRSSTGAVTTSNYANWVQKKPDHLFTGLIGGTNKRAPGVPARFSGSLIGDKAALTITGAQTEDEAIYFCALWYSNLWVFGGGTKLTVL
notes: VH of mSP34; mouse IgG2a (mIgG2a) heavy chain constant region; numbers count on: Eu numbering; VL (lambda) of mSP34; mouse lambda light chain constant region (CL); numbers count on: Kabat numbering; Whole IgG of one HC and one LC; also called anti-CD3; H2L2H2L2; source: Expi293F, transiently expressed, purified (Ab-Capcher MAG2, MonoSpin ProA or MonoSpin ProG); copies: 2 + 2
B5: mSP34 mIgG1, homodimeric antibody without FAST-Ig mutations (antibody, V domains shown)
VH: EVQLVESGGGLVQPKGSLKLSCAASGFTFNTYAMNWVRQAPGKGLEWVARIRSKYNNYATYYADSVKDRFTISRDDSQSILYLQMNNLKTEDTAMYYCVRHGNFGNSYVSWFAYWGQGTLVTVSA
VL: QAVVTQESALTTSPGETVTLTCRSSTGAVTTSNYANWVQEKPDHLFTGLIGGTNKRAPGVPARFSGSLIGDKAALTITGAQTEDEAIYFCALWYSNLWVFGGGTKLTVL
notes: VH of the original mouse antibody mSP34; mouse IgG1 (mIgG1) heavy chain constant region; numbers count on: Eu numbering; VL (lambda) of the original mouse antibody mSP34; mouse lambda light chain constant region (CL); Whole IgG of one HC and one LC; also called anti-CD3; H2L2H2L2; source: Expi293F, transiently expressed, purified (Ab-Capcher MAG2 or MonoSpin ProG); copies: 2 + 2

Our source for the Kd values is article PMC10801562 (Antibodies, 2024).

The assay concerns the target T1, recombinant human CD3ε-CD3δ heterodimeric protein (CD3εδ) (Homo sapiens).
T1 construct: human CD3ε of the recombinant CD3εδ heterodimer; human CD3δ of the recombinant CD3εδ heterodimer; source: in-house prepared
T1 chain 1: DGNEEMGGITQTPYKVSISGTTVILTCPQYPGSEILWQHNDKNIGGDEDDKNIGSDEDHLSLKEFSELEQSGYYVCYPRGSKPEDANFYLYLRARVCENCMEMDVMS
T1 chain 2: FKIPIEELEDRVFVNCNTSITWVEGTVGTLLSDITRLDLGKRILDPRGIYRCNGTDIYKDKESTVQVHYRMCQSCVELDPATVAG
Nature of the assay: SPR; Biacore T200, 37 °C, pH 7.4, PB-P+; antibody captured (630 RU) by anti-mouse IgG (Fc) antibody on a CM4 chip; human CD3εδ as analyte, 1.2-4800 nmol/L; 1:1 binding model (mUCHT1, mSP34). The note with it: both partners purified. (SPR reads the build-up and loss of mass on a sensor chip optically.)
Take B1: the Kd worked out at 1.02 nM.
Consider B2, for which the Kd amounted to 1.45 nM.
B3: the dissociation constant (Kd) stood at 1.32 nM.
As for B4, the figure is 25.7 nM.
As for B5, the figure is 20.9 nM.

Broadly, the Kd is the concentration at which binding is half-saturated.
